T1: tagged Cp3GT (Citrus x paradisi, UniProt C5MR71)
T1 construct: recombinant, Pichia pastoris X-33 (pPicZa), C-terminal thrombin site and c-myc/6x His tags kept; cobalt IMAC
T1 sequence (C5MR71 1-468): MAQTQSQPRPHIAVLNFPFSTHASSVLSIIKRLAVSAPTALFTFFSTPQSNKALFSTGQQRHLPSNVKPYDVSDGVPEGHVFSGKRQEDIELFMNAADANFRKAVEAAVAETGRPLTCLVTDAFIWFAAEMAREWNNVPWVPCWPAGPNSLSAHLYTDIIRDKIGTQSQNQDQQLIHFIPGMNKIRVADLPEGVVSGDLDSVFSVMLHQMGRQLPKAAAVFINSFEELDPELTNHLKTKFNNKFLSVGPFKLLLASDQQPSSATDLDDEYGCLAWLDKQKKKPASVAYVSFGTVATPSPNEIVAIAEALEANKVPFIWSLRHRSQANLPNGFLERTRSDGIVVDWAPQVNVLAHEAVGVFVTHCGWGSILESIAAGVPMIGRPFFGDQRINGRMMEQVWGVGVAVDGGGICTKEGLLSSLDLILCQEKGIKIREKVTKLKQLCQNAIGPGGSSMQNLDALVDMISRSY

T2: untagged Cp3GT (Citrus x paradisi, UniProt C5MR71)
T2 construct: recombinant, Pichia pastoris X-33 (pPicZa), C-terminal c-myc/6x His tags cut off with thrombin; cobalt IMAC; 56 kDa on gel
T2 sequence (C5MR71 1-468): T1 sequence (C5MR71 1-468)

B1: tagged Cp3GT (Citrus x paradisi) (protein)
chain: T1 sequence (C5MR71 1-468)
notes: recombinant, Pichia pastoris X-33 (pPicZa), C-terminal thrombin site and c-myc/6x His tags kept; cobalt IMAC
B2: untagged Cp3GT (Citrus x paradisi) (protein)
chain: T1 sequence (C5MR71 1-468)
notes: recombinant, Pichia pastoris X-33 (pPicZa), C-terminal c-myc/6x His tags cut off with thrombin; cobalt IMAC; 56 kDa on gel

Columns and labels:
tagged Cp3GT = biological target: T1, tagged Cp3GT; test: glucosyltransferase assay, UDP inhibition; type: biochemical
untagged Cp3GT = biological target: T2, untagged Cp3GT; test: glucosyltransferase assay, UDP inhibition; type: biochemical
purified protein = substrate: O=c1c(O)c(-c2ccc(O)cc2)oc2cc(O)cc(O)c12; test: purified protein; conditions: acceptor varied 0–667 µM, non-limiting UDP-glucose, 30 °C, pH 7.5, µM
[1] = substrate: O=c1c(O)c(-c2ccc(O)c(O)c2)oc2cc(O)cc(O)c12; test: glucosyltransferase assay, Lineweaver-Burk; type: biochemical, Citrus x paradisi; conditions: acceptor varied 0–667 µM, non-limiting UDP-glucose, 30 °C, pH 7.5, µM
Excerpt: (§1) glucosyltransferase assay, Lineweaver-Burk on tagged Cp3GT

[2] = substrate: O=c1ccn([C@@H]2O[C@H](CO[P@@](=O)(O)O[P@@](=O)(O)O[C@H]3O[C@H](CO)[C@@H](O)[C@H](O)[C@H]3O)[C@@H](O)[C@H]2O)c(=O)[nH]1; test: glucosyltransferase assay, Lineweaver-Burk; type: biochemical, Citrus x paradisi; conditions: UDP-glucose varied 0–1333 µM, non-limiting acceptor (not named), 30 °C, pH 7.5, µM
Excerpt: as §1

[3] = substrate: O=c1c(O)c(-c2ccc(O)c(O)c2)oc2cc(O)cc(O)c12; test: glucosyltransferase assay, Lineweaver-Burk; type: biochemical, Citrus x paradisi; conditions: acceptor varied 0–667 µM, non-limiting UDP-glucose, 30 °C, pH 7.5, µM; remark: listed apart in the source
Excerpt: (§2) glucosyltransferase assay, Lineweaver-Burk on untagged Cp3GT

[4] = substrate: O=c1ccn([C@@H]2O[C@H](CO[P@@](=O)(O)O[P@@](=O)(O)O[C@H]3O[C@H](CO)[C@@H](O)[C@H](O)[C@H]3O)[C@@H](O)[C@H]2O)c(=O)[nH]1; test: glucosyltransferase assay, Lineweaver-Burk; type: biochemical, Citrus x paradisi; conditions: UDP-glucose varied 0–1333 µM, non-limiting acceptor (not named), 30 °C, pH 7.5, µM; remark: listed apart in the source
Excerpt: as §2

Row | Ki (tagged Cp3GT) [µM] | Ki (untagged Cp3GT) [µM] | Molecule | Km (purified protein) [µM] | kcat (purified protein) [s⁻¹] | kcat/Km (purified protein) [M⁻¹ s⁻¹] | Km [1] [µM] | kcat [1] [s⁻¹] | kcat/Km [1] [M⁻¹ s⁻¹] | Km [2] [µM] | kcat [2] [s⁻¹] | kcat/Km [2] [M⁻¹ s⁻¹] | Km [3] [µM] | kcat [3] [s⁻¹] | kcat/Km [3] [M⁻¹ s⁻¹] | Km [4] [µM] | kcat [4] [s⁻¹] | kcat/Km [4] [M⁻¹ s⁻¹]
1 | 61.8 | 73.1 | O=c1ccn([C@@H]2O[C@H](COP(=O)(O)OP(=O)(O)O)[C@@H](O)[C@H]2O)c(=O)[nH]1 [UDP] |  |  |  |  |  |  |  |  |  |  |  |  |  |  | 
2 |  |  | B1 | 44.1 ± 3.41 | 1.28 | 29000 | 51.9 ± 8.29 | 1.84 ± 0.19 | 35000 ± 1000 | 49.7 ± 5.32 | 0.637 ± 0.092 | 12000 ± 2000 |  |  |  |  |  | 
3 |  |  | B2 | 53.7 ± 10.6 | 1.34 | 25000 |  |  |  |  |  |  | 42.4 ± 3.48 | 1.54 ± 0.06 | 36000 ± 1000 | 55.0 ± 4.97 | 0.738 ± 0.125 | 12000 ± 400

Source: article PMC7154896, “The Effect of Recombinant Tags on Citrus paradisi Flavonol-Specific 3-O Glucosyltransferase Activity” (Plants, 2020)
